Test results as given in article PMC3779320, “Bub3 reads phosphorylated MELT repeats to promote spindle assembly checkpoint signaling” (eLife, 2013).
Positions count from the first letter of the chain named. Square brackets hold non-standard residues; d marks the D form. Ends that are not written are not given here. pT = C[C@@H](OP(=O)(O)O)[C@H](N)C(=O)O

Assays:
Bub1^289–359–Bub3 = target: T1, Bub1^289–359–Bub3 (Saccharomyces cerevisiae, UniProt P26449+P41695); test: ITC binding of MELT peptides to Bub1^289–359–Bub3 (wild type); conditions: 25°C, 20 mM Tris pH7.5, 150 mM NaCl, 1 mM DTE, complex 30 µM in cell, peptide 400 µM
T1 construct: S. cerevisiae Bub1^289–359 and for full length Bub3; GST (N, cleaved yes); made in house; host or cells: E. coli BL21 DE3 plysS
T1 sequence (P26449 1-341): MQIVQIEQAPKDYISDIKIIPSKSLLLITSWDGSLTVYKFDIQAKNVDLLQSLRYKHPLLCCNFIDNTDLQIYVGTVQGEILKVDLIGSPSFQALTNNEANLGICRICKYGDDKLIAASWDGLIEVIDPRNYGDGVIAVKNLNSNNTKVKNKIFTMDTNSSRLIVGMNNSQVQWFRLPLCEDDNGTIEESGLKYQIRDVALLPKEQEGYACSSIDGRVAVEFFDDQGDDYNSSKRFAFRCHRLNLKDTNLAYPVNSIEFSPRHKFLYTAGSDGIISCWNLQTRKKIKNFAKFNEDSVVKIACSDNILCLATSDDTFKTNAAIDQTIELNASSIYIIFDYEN
T1 sequence (P41695 289-359): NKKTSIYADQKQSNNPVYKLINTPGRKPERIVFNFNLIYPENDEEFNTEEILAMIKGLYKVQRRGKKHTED
Excerpt: We generated recombinant ScBub1^289–359–Bub3 (where the Bub1 segment is equivalent to the minimal kinetochore targeting region of human Bub1 [[Krenn et al., 2012]]) by bacterial co-expression and purified it to homogeneity (Figure 1D). To assess whether Bub1–Bub3 binds directly to MELT^P sequences, we tested its ability to bind MELT sequences in quantitative isothermal titration calorimetry (ITC) binding experiments. 19-residue synthetic peptides encompassing the sequences of the second and fourth MELT^P motifs of Spc105/Knl1 (indicated as MELT2 and MELT4, respectively), each flanked by four and eleven residues on the N- and C-terminal ends, respectively, were tested (Figure 1C). […] Thus, ScBub1^289–359–Bub3 is sufficient for the reconstitution of tight interactions with two MELT^P peptides in vitro that recapitulate a salient feature of this interaction, its dependency on phosphorylation.
cDNA sequences coding for S. cerevisiae Bub1^289–359 and for full length Bub3 were subcloned in the first and second cassettes of pGEX-6P-2rbs vector ([Ciferri et al., 2005]). In this construct, the cDNA encoding Bub1^289–359 was sub-cloned in frame with the gene encoding GST and a cleavage site for PreScission protease, and was translated from the first ribosome-binding site (rbs). Untagged Bub3 was subcloned downstream of the second rbs in the same vector. Expression was carried out in BL21 DE3 plysS cells in LB medium by auto-induction with 0.3% lactose at 18°C for approximately 16 hr. Cells were harvested by centrifugation and resuspended in Buffer A (20 mM Tris pH 7.5, 300 mM NaCl, 10% Glycerol, 1 mM DTE, 1 mM EDTA pH 8.0, 1 mM PMSF) typically at a dilution of 3 ml lysis buffer per ml of bacterial pellet. Cells were lysed by sonication, and the lysates were cleared by centrifugation at 75000 × g for 45 min. The resulting clear supernatant was incubated with gentle rotation with 1/50 (vol/vol) of GSH-sepharose slurry (GE Healthcare) for 1–2 hr at 4°C. Beads were washed with 150 vol of Buffer A. To elute the Bub1–Bub3 complex from beads, GST-PreScission protease (0.02 mg/mg of protein target) was added for 16 hr at 4°C. The eluate was concentrated on Amicon Ultra Centrifugal Filters MwCO 3000 (Merck Millipore, Billerica, MA) and further purified by size exclusion chromatography (SEC) on a Superdex 75 16/60 column using GF buffer (20 mM Tris pH 7.5, 150 mM NaCl, 1 mM DTE). The complex eluted in a single peak with apparently stoichiometric amounts of Bub1^289–359 and Bub3 and was subsequently concentrated to ∼10 mg/ml for crystallization or to 2–4 mg/ml for ITC experiments. […]
Binding isotherm was measured at 25°C by isothermal titration calorimetry on a MicroCal ITC200 device (GE Healthcare, Piscataway, NJ). […]

Bub1^289–359–R314A–Bub3 = target: T2, Bub1^289–359–R314A–Bub3 (Saccharomyces cerevisiae, UniProt P26449+P41695, R314A); assay type: binding; conditions: ITC; Bub3-Bub1^R314A mutant compared to wild type Bub3–Bub1; MELT4^P: data not shown
T2 construct: S. cerevisiae Bub1^289–359 and for full length Bub3; ITC experiment with the MELT2^P peptide and the Bub1^289–359–R314A–Bub3 complex; GST (N, cleaved yes); made in house; host or cells: E. coli BL21 DE3 plysS
Excerpt: Such function of Bub1 is probably exerted primarily through its structuring effects on the 4-stranded β-sheet ‘roof’ that dominates the peptide-binding region of Bub3 and which restrains the position of the positively charged residues in the ‘north’ area of the MELT^P-binding site (Figure 4E). Additionally, we observe that Arg314^Bub1, in the β1-β2 loop, contributes to the interaction with the phosphate group of P-Thr172^Spc105/Knl1 (the interaction, however, is only observed in one of the two complexes in the asymmetric unit, and in proximity of a crystal contact) and is therefore directly engaged in the interaction with the MELT2^P peptide. In ITC measurements, we observed a ∼fourfold reduction in the binding affinity of the Bub3-Bub1^R314A mutant for the MELT2^P peptide, in agreement with a role of Arg314^Bub1 is in the interaction of the Bub1-Bub3 complex with MELT2^P (Figure 4F). Similarly, Bub3–Bub1^R314A bound the MELT4^P with ∼threefold decreased affinity compared to wild type Bub3–Bub1 (data not shown).
Binding isotherm was measured at 25°C by isothermal titration calorimetry on a MicroCal ITC200 device (GE Healthcare, Piscataway, NJ). All samples were extensively dialysed into fresh GF buffer (20 mM Tris pH7.5, 150 mM NaCl, 1 mM DTE). […]

[1] = target: ScBub1^289–359–Bub3 complex (S. cerevisiae) (UniProt P41695); test: ITC; 25°C, MicroCal ITC200; 20 mM Tris pH7.5, 150 mM NaCl, 1 mM DTE; Bub1^289–359–Bub3 in the cell at 30 µM, titrated with thirty-five 2-µl injections of peptide at 400 µM; single-site binding model
Bub3 (S. cerevisiae) = target: T3, Bub3 (S. cerevisiae) (S. cerevisiae, UniProt P26449 1-341); test: as above; conditions: both partners purified
T3 construct: Bub3, S. cerevisiae, full length (7-bladed WD40 beta-propeller); The methods tell the construct only for Bub3 co-expressed with Bub1; also called ScBub3; purified Bub3; source: Bub3 alone: purified, expression not described
T3 sequence (looked up): T1 sequence (P26449 1-341)

[2] = target: T4, Bub1^289–359–R314A–Bub3 complex (S. cerevisiae, UniProt P41695 289-359; P26449 1-341, R314A); test: as above; conditions: both partners purified
T4 construct: Bub3, S. cerevisiae, full length; Probably GST-tagged on Bub1 and cleaved as the wild type; also called Bub3-Bub1^R314A mutant; Bub3–Bub1^R314A
T4 sequence (looked up) 1: T1 sequence (P41695 289-359) with R26A
T4 sequence (looked up) 2: T1 sequence (P26449 1-341)

[3] = target: T5, Bub1^289–359–Bub3^R217A complex (S. cerevisiae, UniProt P41695 289-359; P26449 1-341, R217A); test: as above; conditions: both partners purified
T5 construct: Bub3, S. cerevisiae, full length, with R217A; also called R217A mutant; source: expressed and purified essentially like the wild type complex (E. coli, GSH-sepharose, PreScission cleavage, SEC)
T5 sequence (looked up) 1: T1 sequence (P41695 289-359)
T5 sequence (looked up) 2: T1 sequence (P26449 1-341) with R217A

[4] = target: T6, Bub1^289–359–Bub3^R239A complex (S. cerevisiae, UniProt P41695 289-359; P26449 1-341, R239A); test: as above; conditions: both partners purified
T6 construct: Bub3, S. cerevisiae, full length, with R239A; also called R239A mutant; source: expressed and purified essentially like the wild type complex (E. coli, GSH-sepharose, PreScission cleavage, SEC)
T6 sequence (looked up) 1: T1 sequence (P41695 289-359)
T6 sequence (looked up) 2: T1 sequence (P26449 1-341) with R239A

[5] = target: T4, Bub1^289–359–R314A–Bub3 complex; test: ITC; data not shown; method taken from the sentence before it (ITC measurements); conditions: both partners purified
[6] = target: T7, Bub1^289–359–R314A–Bub3 complex (S. cerevisiae, UniProt P41695 289-359; P26449 1-341, R314A); test: ITC
T7 sequence 1: T1 sequence (P41695 289-359) with R26A
T7 sequence 2: T1 sequence (P26449 1-341)

T2 sequence (P41695 289-359 R314A, one chain of several): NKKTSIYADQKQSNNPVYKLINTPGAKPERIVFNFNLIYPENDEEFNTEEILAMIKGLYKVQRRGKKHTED

DTVEGEPIDL{PTHR}EYESKPYVPN [MELT4^P]
binding (in words) (Bub1^289–359–Bub3): no binding
fold reduction in binding affinity (Bub1^289–359–R314A–Bub3): threefold

GGGPA{pTHR}PKKAKKL [H1^P, Histone H1-derived phosphorylated peptide GGGPA{pTHR}PKKAKKL, AnaSpec catalog number 61741, reference compound]
binding (in words) (Bub1^289–359–Bub3): No binding
binding (in words) (Bub1^289–359–Bub3; listed as unrelated phospho-peptide): did not show any binding affinity

MELT2^P peptide (phosphorylated second MELT repeat of Spc105/Knl1)
Kd [1]: 200 nM

MELT4^P peptide (phosphorylated fourth MELT repeat of Spc105/Knl1)
Kd [1]: 1300 nM

B1: MELT2^P peptide (phosphorylated second MELT repeat of Spc105/Knl1) (peptide)
peptide: DPTSMEM[pT]EVFPRSIRQKN
notes: Spc105/Knl1, S. cerevisiae, second MELT repeat with four residues before and eleven after; Met169, Glu170, Met171, P-Thr172, Phe175 are the printed numbers; The end groups are told only for the peptide used for crystallisation; also called MELT^P peptide; Spc105/Knl1 phosphopeptide; source: synthetic peptide, custom made by GeneScript (95% purity)
Kd (Bub3 (S. cerevisiae)): 2000 nM
fold reduction in binding affinity against wild type Bub1^289–359–Bub3 [2]: ~4 fold
Kd [3]: 2700 nM
Kd [4]: 5 µM

B2: MELT4^P peptide (phosphorylated fourth MELT repeat of Spc105/Knl1) (peptide)
peptide: DTVEGEPIDL[pT]EYESKPYVPN
notes: Spc105/Knl1, S. cerevisiae, fourth MELT repeat; also called fourth MELT^P peptide; source: synthetic peptide, custom made by GeneScript (95% purity)
fold decrease in affinity against wild type Bub3–Bub1 [5]: ~3 fold

B3: MELT2^P peptide (phosphorylated second MELT repeat of Spc105/Knl1) (peptide)
peptide: DPTSMEM[pT]EVFPRSIRQKN
modifications: not fully specified
Kd [6]: 790 nM
